How the values were obtained:
[1] = target: MBP-AKAP79 (A-kinase anchoring protein 79) with C-terminal 10x His-tag (human) (UniProt P24588); experiment: SEC-MALS; 500 μL purified complex (~2 mg/mL) on a WTC-050S5 SEC column at 0.5 mL/min, in-line refractometer and light scattering
[2] = target: His-tagged AKAP79 C-terminal fragment (PIAIIIT region) (human) (UniProt P24588); experiment: AlphaScreen or HTRF; competition: 100 nM biotinylated PP2B and 100 nM His-tagged AKAP79 or fragment, serial dilutions of untagged PP2B; streptavidin donor and nickel acceptor beads; 25 mM HEPES, pH 7.5, 100 mM NaCl, 0.1% BSA, 3 mM CaCl2, 2 μg/mL CaM; one-site IC50 fit taken to approximate the Kd
[3] = target: His-tagged AKAP79 N-terminal fragment encompassing the LKIP motif (human) (UniProt P24588); experiment: as above
[4] = target: MBP-AKAP79 (A-kinase anchoring protein 79) with C-terminal 10x His-tag (human) (UniProt P24588); experiment: as above
[5] = target: AKAP79∆L-CaNAR (AKAP79 lacking residues 122-136 fused to CaNAR2pax) (human) (UniProt P24588)
[6] = target: AKAP79-CaNAR (full-length AKAP79 fused to the N-terminus of CaNAR2pax) (human) (UniProt P24588)

stoichiometry N [1] | Kd [2] [µM] | Kd [3] [µM] | Kd [4] [µM] | time to half maximal YFP/CFP FRET response of the reporter after 1 μM ionomycin (HeLa cells) [5] [min] | time to half maximal YFP/CFP FRET response of the reporter after 1 μM ionomycin (HeLa cells) [6] [min] | Substance
1 | 5.6 | 81 | 12 |  |  | PP2B holoenzyme (calcium/calmodulin-dependent protein phosphatase 2B; A and B subunits), untagged (from UniProt Q08209 1-521; P63098 1-170) (complex)
1 |  |  |  |  |  | calmodulin (CaM) (from UniProt P0DP23 1-149) (natural protein; other documents disagree on this pair)
 |  |  |  | 2.41 | 3.58 | PP2B, endogenous in HEK293 cells (from UniProt Q08209 1-521; P63098 1-170) (complex)

— publication PMC5653234
